Paper PMC12871931, “The importin‐alpha superfamily engages in ethylene signaling by shuttling [sequence] INSENSITIVE 2 from the endoplasmic reticulum to the nucleus” (The Febs Journal, 2025)

What was measured:
[1] = biological target: ΔIBB_IMPα1 (Arabidopsis thaliana, UniProt Q96321); type: binding
Description: Next, we used biolayer interferometry (BLI) with an Octet K2 instrument (Fortè Bio, Dallas, USA) to substantiate and further delineate the binding interactions between the IMPα superfamily and the EIN2‐NLS motif. BLI measures slight changes in reflected light at a sensor surface upon the formation of molecular complexes. Specifically, it monitors interference patterns of white light, which are reflected from two different surfaces: an internal reference layer and a layer of biomolecules immobilized on a biosensor tip.
In these binding assays, IMPα1 lacking the IBB domain (ΔIBB_IMPα1) and IMPα4 were selected as representatives of the IMPα superfamily. Prior to their interaction studies with different EIN2 CEND‐NLS probes, both importins were biotinylated with the Biotin‐PEG4‐NHS ester Protein Labeling Kit from Jena Bioscience (Jena, Germany) and immobilized onto streptavidin‐coated biosensor tips (Fig. 5).
Curve fitting of the BLI sensorgrams was tested with different binding models. […] This model assumes analyte binding at two independent ligand sites at the IMPα immobilized on the biosensor surface. Furthermore, each ligand site binds the analyte independently and with a different rate constant. […]

[2] = test system: N. benthamiana epidermal leaf cells; assay: Confocal fluorescence microscopy, subcellular localization; type: cell-based; details: Cerulean fusion, transiently transformed N. benthamiana epidermal leaf cells
Description: (§1) A modified version of a previously described procedure was used for the transient transformation of N. benthamiana. An overnight culture of agrobacteria was inoculated in DYT and incubated at 28°C one day before infiltration. Bacteria were then centrifuged at 4000 g and resuspended in infiltration medium (5% (w/v) Saccharose; 0.01% (w/v) MgSO4; 0.01% (w/v) Glucose; Acetosyringone 450 μM) to an OD600 of 0.4–0.8. Resuspended bacteria were kept on ice for 1–2 h prior to infiltration. For co‐infiltration, bacteria solutions were mixed in equal quantities, and Agrobacterium strain GV3101:p19 expressing the p19 silencing inhibitor was added to each mix. Infiltration of the bacteria solution was performed with a 1 mL syringe onto the abaxial side of 3‐ to 4‐week‐old plants. Plants were kept under continuous light before microscopy analysis. For ß‐estradiol inducible constructs, plants were sprayed on the abaxial side of infiltrated leaves with an estradiol solution (ß‐estradiol 20 μM; Tween‐20 0.1% (w/v)) prior to imaging.
For fluorescence imaging, a Zeiss LSM 780 confocal microscope (40× water immersion objective, Zeiss C‐PlanApo, NA 1.2) was used. YFP was excited at 514 nm and Cerulean at 458 nm. Signal recording of each fluorophore was done within its maximum emission peak while avoiding auto‐fluorescence above 650 nm. […]

[3] = test system: EIN2C^479–1294; assay: In planta FLIM‐FRET, EIN2C^479–1294‐CER donor, IMPα‐YFP acceptors; type: cell-based, Arabidopsis thaliana; details: N. benthamiana epidermal leaf cells; for average fluorescence lifetime of the EIN2C^479‐1294‐CER donor: co‐expression, vs donor only, Kruskal‐Wallis and Dunn's test, 18–20 measurements
Description: To further investigate the interaction between members of the IMPα superfamily and EIN2 in planta, we used in vivo fluorescence lifetime microscopy and Förster's resonance energy transfer (FLIM‐FRET). Accordingly, the C‐terminal part of EIN2 (EIN2C^479–1294) was fused to the fluorescent protein Cerulean (CER), serving as a donor, and the IMPα isoforms (IMPα1‐7) were fused to YELLOW FL[…] (YFP), serving as acceptors.
as §1
Fluorescence lifetime imaging was performed using a protocol described previously. Fluorescence lifetime was measured at a Zeiss LSM 780 confocal microscope (40× water immersion objective, Zeiss C‐PlanApo, NA 1.2). For TCSPC, a PicoQuant Hydra Harp 400 (PicoQuant, Berlin, Germany) was used. Photon counting was performed with a picosecond resolution. Cerulean was excited with a 440 nm ([…], 32 MHz, PicoQuant, Berlin, Germany) pulsed polarized laser. Laser power at the objective lens was adjusted to ~2.2 μW in N. benthamiana experiments. […] Photons were detected in both donor and acceptor channels simultaneously with Tau‐SPADs (PicoQuant, Berlin, Germany). […] Internal response functions for each laser were determined by measuring the fluorescence decay of quenched Atto425 in saturated KI, using the same hardware settings as for the FRET pair of interest. Fluorescence lifetime images were acquired in the cytosol, ER, or nucleus in donor‐only samples and samples with IMPα1‐4 and IMPα7. […]
The fluorescence decays were fitted using a previously reported method with minor modifications.
The fluorescence decays of selected ROIs in the FLIM image were analyzed with the SymPhoTime FLIM analysis software (SymPhoTime 64, version 2.4; PicoQuant, Berlin, Germany). […]

Sequence of ΔIBB_IMPα1 (Q96321 whole entry, stated change not applied): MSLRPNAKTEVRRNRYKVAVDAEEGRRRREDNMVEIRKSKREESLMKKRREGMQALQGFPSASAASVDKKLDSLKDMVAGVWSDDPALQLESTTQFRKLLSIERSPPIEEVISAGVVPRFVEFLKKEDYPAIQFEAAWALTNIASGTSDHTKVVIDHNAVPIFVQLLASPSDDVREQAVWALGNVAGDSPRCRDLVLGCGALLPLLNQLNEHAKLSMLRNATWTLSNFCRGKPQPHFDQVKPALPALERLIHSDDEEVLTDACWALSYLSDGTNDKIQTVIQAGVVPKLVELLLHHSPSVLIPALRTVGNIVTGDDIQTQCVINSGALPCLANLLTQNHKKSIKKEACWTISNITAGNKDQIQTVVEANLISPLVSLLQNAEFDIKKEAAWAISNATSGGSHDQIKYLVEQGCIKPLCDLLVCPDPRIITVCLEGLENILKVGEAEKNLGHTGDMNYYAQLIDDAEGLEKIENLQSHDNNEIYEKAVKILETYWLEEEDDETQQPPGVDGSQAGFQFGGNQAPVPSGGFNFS

B1: GB1‐AtEIN2C^1215–1281: CEND construct containing a GB1‐tag to enhance solubility, produced recombinantly in E. coli (protein)
chain: {GB1 tag}-KGKCTTAVTLLDLIKDVEMAISCRKGRTGTAAGDVAFPKGKENLASVLKRYKRRLSNKPVGMNQDGP
modifications: not fully specified
notes: CEND construct containing a GB1‐tag to enhance solubility, produced recombinantly in E. coli
With B1 the Hill coefficient ([1]; BLI dose response, ΔIBB_IMPα1) was 0.94 ± 0.06 and the Kd ([1]; BLI, ΔIBB_IMPα1 biotinylated on streptavidin biosensor (15 μM in 100 mM Tris pH 7.0, 100 mM KCl, 0.01% Tween 20), room temperature, association 300 s, dissociation 300 s, 1:2 heterogeneous ligand model, n = 3, read-out: K d + SD) was 8.8 ± 1.1 µM.

B2: EIN2C^479–1294: C‐terminal part of EIN2 fused to Cerulean (CER), FRET donor (protein)
chain: NALSYPSVQEEEIERTETRRNEDESIVRLESRVKDQLDTTSVTSSVYDLPENILMTDQEIRSSPPEERELDVKYSTSQVSSLKEDSDVKEQSVLQSTVVNEVSDKDLIVETKMAKIEPMSPVEKIVSMENNSKFIEKDVEGVSWETEEATKAAPTSNFTVGSDGPPSFRSLSGEGGSGTGSLSRLQGLGRAARRHLSAILDEFWGHLYDFHGQLVAEARAKKLDQLFGTDQKSASSMKADSFGKDISSGYCMSPTAKGMDSQMTSSLYDSLKQQRTPGSIDSLYGLQRGSSPSPLVNRMQMLGAYGNTTNNNNAYELSERRYSSLRAPSSSEGWEHQQPATVHGYQMKSYVDNLAKERLEALQSRGEIPTSRSMALGTLSYTQQLALALKQKSQNGLTPGPAPGFENFAGSRSISRQSERSYYGVPSSGNTDTVGAAVANEKKYSSMPDISGLSMSARNMHLPNNKSGYWDPSSGGGGYGASYGRLSNESSLYSNLGSRVGVPSTYDDISQSRGGYRDAYSLPQSATTGTGSLWSRQPFEQFGVAERNGAVGEELRNRSNPINIDNNASSNVDAEAKLLQSFRHCILKLIKLEGSEWLFGQSDGVDEELIDRVAAREKFIYEAEAREINQVGHMGEPLISSVPNCGDGCVWRADLIVSFGVWCIHRVLDLSLMESRPELWGKYTYVLNRLQGVIDPAFSKLRTPMTPCFCLQIPASHQRASPTSANGMLPPAAKPAKGKCTTAVTLLDLIKDVEMAISCRKGRTGTAAGDVAFPKGKENLASVLKRYKRRLSNKPVGMNQDGPGSRKNVTAYGSLG
modifications: left off: Cerulean, end not stated, kept
notes: C‐terminal part of EIN2 fused to Cerulean (CER), FRET donor
B2 was tested, and the subcellular localization [2] was “localized in the nucleus, ER, and cytoplasm”.

B3: IMPα7‐YFP: A. thaliana IMPα7 fused to YFP, FRET acceptor (protein)
chain: MKGGETMSVRRSGYKAVVDGVGGRRRREDDMVEIRKAKREESLLKKRREALPHSPSADSLDQKLISCIWSDERDLLIEATTQIRTLLCGEMFNVRVEEVIQAGLVPRFVEFLTWDDSPQLQFEAAWALTNIASGTSENTEVVIDHGAVAILVRLLNSPYDVVREQVVWALGNISGDSPRCRDIVLGHAALPSLLLQLNHGAKLSMLVNAAWTLSNLCRGKPQPPFDQVSAALPALAQLIRLDDKELLAYTCWALVYLSDGSNEKIQAVIEANVCARLIGLSIHRSPSVITPALRTIGNIVTGNDSQTQHIIDLQALPCLVNLLRGSYNKTIRKEACWTVSNITAGCQSQIQAVFDADICPALVNLLQNSEGDVKKEAAWAICNAIAGGSYKQIMFLVKQECIKPLCDLLTCSDTQLVMVCLEALKKILKVGEVFSSRHAEGIYQCPQTNVNPHAQLIEEAEGLEKIEGLQSHENNDIYETAVKILETYWMEEEEEEDQEQQDMIYFPVDNFANMPTSSGTLSEMHCGP
modifications: left off: YFP, end not stated, kept
notes: A. thaliana IMPα7 fused to YFP, FRET acceptor
In the case of B3, the “average fluorescence lifetime of the EIN2C^479‐1294‐CER donor” value (shortened to “average fluorescence lifetime”) [3] is reported as “significant reduction”.

B4: IMPα5: A. thaliana IMPα5 fused to YFP, FRET acceptor (protein)
chain: MSLRPSTKTEIRRIRYKVSVDAEEGRRRREDFLVEIRKSKRNENLMKKRRVKVLPPDYKLISNDPFESLLEIANMITGVFSDDPSLQLEYTTRFRVVLSFDRSPPTDNVIKSGVVPRFVEFLKKDDNPKLQFEAAWALTNIASGASEHTKVVIDHGVVPLFVQLLASPDDDVREQAIWGLGNVAGDSIQCRDFVLNSGAFIPLLHQLNNHATLSILRNATWTLSNFFRGKPSPPFDLVKHVLPVLKRLVYSDDEQVLIDACWALSNLSDASNENIQSVIEAGVVPRLVELLQHASPVVLVPALRCIGNIVSGNSQQTHCVINCGVLPVLADLLTQNHMRGIRREACWTISNITAGLEEQIQSVIDANLIPSLVNLAQHAEFDIKKEAIWAISNASVGGSPNQIKYLVEQNCIKALCDILVCPDLRIILVSLGGLEMILIAGEVDKNLRDVNCYSQMIEDAEGLEKIENLQHHGNNEIYEKAVKILQTYGLVEEDGRLVEEEDEGGDGCSHPEFQFDFSR
modifications: left off: His6, C-terminal, state not stated
notes: A. thaliana IMPα5 fused to YFP, FRET acceptor
For B4, the “average fluorescence lifetime” value [3] was “only slightly, but not significantly reduced” and the FRET efficiency ([3]; mean, EIN2C^479–1294‐CER donor / IMPα‐YFP acceptor) was 1%.

B5: IMPα6‐YFP: A. thaliana IMPα6 fused to YFP, FRET acceptor (protein)
chain: MSYKPSAKTEVRRNRYKVSVDADEGRRRREDNMVEIRKNKREENLQKKRREGFNPSMASQPGQDFSSSLPTETRLENIQQMIAGVMSEDRDLQLEATASFRRLLSIERNPPINEVVQSGVVPHIVQFLSRDDFTQLQFEAAWALTNIASGTSENTRVIIDSGAVPLFVKLLSSASEEVREQAVWALGNVAGDSPKCRDHVLSCEAMMSLLAQFHEHSKLSMLRNATWTLSNFCRGKPQPAFEQTKAALPALERLLHSTDEEVLTDASWALSYLSDGTNEKIQTVIDAGVIPRLVQLLAHPSPSVLIPALRTIGNIVTGDDIQTQAVISSQALPGLLNLLKNTYKKSIKKEACWTISNITAGNTSQIQEVFQAGIIRPLINLLEIGEFEIKKEAVWAISNATSGGNHDQIKFLVSQGCIRPLCDLLPCPDPRVVTVTLEGLENILKVGEAEKNLGNTGNDNLYAQMIEDADGLDKIENLQSHDNNEIYEKAVKILESYWAADDEEEDIGGVDAPENVQSSGFQFGNQSGNAPTGGFNFG
modifications: left off: YFP, end not stated, kept
notes: A. thaliana IMPα6 fused to YFP, FRET acceptor
In the case of B5, the “average fluorescence lifetime” value [3] is reported as “significant reduction”.
